Source: US6946258B2, “Rapid, immunochemical process for measuring thiopurine methyltransferase” (Biologix Diagnostics, LLC, priority 2002, dated 2005)
Values belong to the molecule of their own block, whether it stands above or below them.

Legend:
[1] = biological target: T1, human TPMT (Homo sapiens, UniProt P51580); conditions: Deininger et al., 1994, Table 1; cited from earlier work
T1 sequence (P51580 1-245): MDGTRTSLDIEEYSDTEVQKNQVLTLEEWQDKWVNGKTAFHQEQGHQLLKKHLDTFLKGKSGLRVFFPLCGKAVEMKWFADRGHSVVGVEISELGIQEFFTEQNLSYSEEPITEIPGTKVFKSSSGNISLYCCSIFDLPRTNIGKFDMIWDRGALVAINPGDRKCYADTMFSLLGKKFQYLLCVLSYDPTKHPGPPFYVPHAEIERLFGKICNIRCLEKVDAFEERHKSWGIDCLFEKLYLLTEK

[2] = biological target: T2, hTPMT enzyme (Homo sapiens, UniProt P51580, Y240C); test: ELISA immunoassay for TPMT using purified anti-6-MMP IgG; format: biochemical; conditions: TPMT + 100 μM SAM, 37° C., 30 minutes
T2 construct: DNA fragment; first 13 codons of LacZ (vector-encoded leader of pGEM-3Zf(+)) (N); made in house; host or cells: E. coli JM109 (pTPMT)
T2 sequence (P51580 1-245 Y240C): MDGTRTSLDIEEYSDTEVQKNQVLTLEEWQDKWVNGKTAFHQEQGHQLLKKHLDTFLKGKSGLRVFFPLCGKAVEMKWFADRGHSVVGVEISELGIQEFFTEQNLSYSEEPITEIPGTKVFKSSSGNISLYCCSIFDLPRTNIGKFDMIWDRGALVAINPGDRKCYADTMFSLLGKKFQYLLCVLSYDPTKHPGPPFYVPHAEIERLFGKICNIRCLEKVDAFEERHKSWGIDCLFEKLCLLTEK
From the text: In order to determine whether TPMT enzyme could methylate 6-MP bound to BSA in reaction wells of a plastic ELISA plate, and if the anti-6-MMP antibody could detect the methylated 6-MMP reaction product, the following assay format was developed: [drawing 3] Schematic Representation of ELISA Assay for TPMT. Substrate BSA-6-mercaptopurine conjugate is coated onto the wells of plastic ELISA plates. In the presence of S-Adenosylmethionine (SAM), TPMT catalyses S-methylation of 6-MP to 6-methylmercaptopurine (6-MMP). Rabbit anti-6-MMP IgG binds to the covalently bound 6-MMP reaction product; and Protein A-Horseradish peroxidase (HRP) conjugate then binds to the rabbit IgG. Blue color develops in the presence of the HRP substrate, Tetramethylbenzidine. After acidification, the color changes to yellow; and the optical density at 450 nm is directly proportional to the amount of 6-MMP produced by enzyme-catalyzed TPMT methylation.
The wells of ‘Immulon B’ ELISA strips were coated with various concentrations of BSA-6MP conjugate and blocked as described above. After blocking solution was removed, the wells received 100 μl of Methylation Reaction Mix consisting of 1 mM Potassium Phosphate, 30 mM Tris-HCl, pH 8.0, lmM EDTA, 100 μM SAM and 1-4 μl of TPMT enzyme (˜6 units/μl). As a control, the wells received 100 μl of same reaction mix except no Mtase enzyme.
The wells were incubated at 37° C. for 30 minutes and were developed as described before. Absorbance was read on an Opsys MR ELISA plate reader (Dynex) at 450 nm. In this ELISA assay format, TPMT enzyme activity is detected as the amount of 6-MMP formed in situ: substrate 6-mercaptopurine is covalently bound to BSA which coats the wells of the plastic ELISA plate. Since anti-6-MMP IgG binds specifically to the methylated reaction product, 6-MMP, it is possible to measure TPMT activity using horseradish peroxidase (HRP) labeled Protein A (or HRP-conjugated goat anti-rabbit IgG). […]

[3] = biological target: T2, hTPMT enzyme; test: Temperature optimum of recombinant TPMT; format: biochemical
Experimental: Thawed cells (˜15g) were sonicated in (20 mM Tris-Cl, pH 7.5, 1 mM EDTA, 50 mM KC1, 10 mM β-mercaptoethanol) and centrifuged (8000 g for 15 minutes). The supernatant was loaded onto a Q-Sepharose column (Pharmacia, Piscataway, N.J.). […] After a storage of 2 and 5 months at −20° C., no change in TPMT enzyme activity was observed.

[4] = Storage stability of recombinant TPMT; format: physicochemical; conditions: storage of 2 and 5 months at −20° C.
Experimental: The optimal reaction temperature for the hTPMT enzyme is 37° C. […] The relatively high activity of TPMT at ambient temperature facilitates immunoassays using anti-6-MMP antibody. After a storage of 2 and 5 months at −20° C., no change in TPMT enzyme activity was observed.

Molecule: OC[C@H]1O[C@@H](n2cnc3c(S)ncnc32)[C@H](O)[C@@H]1O [6-mercaptopurine riboside]
substrate quality for human TPMT [1]: relatively good substrate

Absorbance at 450 nm ([2]; wells coated with BSA:6-MP 10 μg/ml): 2.228
Absorbance at 450 nm ([2]; wells coated with BSA:6-MP 100 μg/ml): 2.440
Absorbance at 450 nm ([2]; wells coated with BSA:6-MP 1 mg/ml): 2.561
Molecule: BSA:6-MP: 6-MP (TPMT substrate) linked to BSA by periodate oxidation chemistry; coated onto ELISA wells

optimal reaction temperature [3]: 37 °C
B1: hTPMT enzyme: Recombinant human thiopurine methyltransferase expressed in E.coli JM109 (pTPMT), partially purified (protein, UniProt P51580 1-245, looked up)
Thiopurine S-methyltransferase: MDGTRTSLDIEEYSDTEVQKNQVLTLEEWQDKWVNGKTAFHQEQGHQLLKKHLDTFLKGKSGLRVFFPLCGKAVEMKWFADRGHSVVGVEISELGIQEFFTEQNLSYSEEPITEIPGTKVFKSSSGNISLYCCSIFDLPRTNIGKFDMIWDRGALVAINPGDRKCYADTMFSLLGKKFQYLLCVLSYDPTKHPGPPFYVPHAEIERLFGKICNIRCLEKVDAFEERHKSWGIDCLFEKLYLLTEK
modifications: recombinant, E. coli
notes: Recombinant human thiopurine methyltransferase expressed in E.coli JM109 (pTPMT), partially purified
enzyme activity at 23° C. relative to the optimum ([3]; 23° C.): nearly as active
change in TPMT enzyme activity after storage [4]: no change
